Patent publication US8652467B2, “Dek protein compositions and methods of using the same” (The Regents of the University of Michigan, priority 2005, dated 2014)
Entries after “also recorded” stand apart in the source; their conditions may differ.

Tests used:
MDM and HeLa cells = experiment: Uptake of recombinant DEK by cells; type: cell-based, human; details: MDM (12-day) and HeLa cells
[1] = system: Human Microvascular Endothelial Cells (HMVEC); experiment: HMVEC chemotaxis (cell migration assay); type: cell-based; details: 3.5 μg purified recombinant DEK vs purification buffer control
Procedure: Cell migration assay (See, e.g., Koch et al., Arthritis & Rheumatism 44: 31-40, (2001)) was performed with either 3.5 μg of purified, recombinant DEK diluted in PBS, or with just the purification buffer diluted in PBS (control). Nine high-power fields were assayed per sample, and results expressed as the number of cells migrating per well. Error bars show the mean deviation of two separate experiments (*p=0.0249).

[2] = system: purified neutrophils (PMN); experiment: In vitro migration assay with purified neutrophils; type: cell-based, human; details: various concentrations of recombinant DEK in lower chamber; 79 nM vs control
Procedure: Purified neutrophils (PMN) were treated with IL-8 (50 nM), the CXCR2 small molecule inhibitor SB225002 (3 μM), DEK (79 nM), IL-8 plus SB225002, or DEK plus SB225002 for 5 min at room temperature before and then during the migration assay. After 1 h, the number of fluorescently labeled migrating cells in the lower chamber was determined at 485 nM/535 nm wavelengths by Tecan GENios (Phenix, Austria). […] The results are expressed as the average fold increase in the number of cells migrating toward DEK compared to control wells containing medium only. White blood cells were isolated from venous blood from healthy donors as described above, and were depleted of monocytes by adherence to plastic for 2 h as described in the Cell Preparation section. […] The cells were washed and resuspended at 1×10^6 cells/ml in serum-free RPMI medium, and 1×10^5 labeled cells in 100 μl were added to the upper chamber of a 24-well Transwell chemotaxis insert with pore size of 3 μm or 5 μm (Corning, N.Y.). The lower chambers contained serum-free RPMI medium alone, recombinant DEK made in baculovirus, or a deletion mutant of the β form of human GLI-2 (See, e.g., Smith et al., J Virol 75, 2301-13 (2001)) produced in baculovirus as the control protein. After 30 min to 1 h, the number of fluorescently labeled migrating cells in the lower chamber was determined at […] wavelength using a Tecan GENios plate-reader (Phenix, Austria). The results were expressed as the average fold increase of the number of cells migrating toward lower chambers containing DEK divided by the number of cells migrating toward the control wells (medium alone). Forty ml of venous blood was collected from healthy volunteers into a 50 ml sterile syringe containing a mixture of 7 ml 0.25 M Citrate (0.17 M NA Citrate and 0.083 M Citric Acid) and 6% Dextran in PBS buffer. The blood was incubated for 30 min at room temperature and the upper phase was collected and further separated by Ficoll as described above. The neutrophil fraction was collected and washed with HBSS buffer and then pelleted again. […]

circular SV-40 DNA = experiment: Topology assay with His-DEK and GST-ALY; type: biochemical; details: in the presence of 1 U topoisomerase I
Procedure: 10 ng (0.003 pmol) of circular SV-40 DNA was incubated with 2, 4 or 8 pmol of HIS-DEK (DEK) or GST-ALY (ALY) or either 2 or 4 pmol HIS-DEK and 2, 4 or 8 pmol GST-ALY in the presence of 1 U topoisomerase I. As a control for the functionality of topoisomerase I, SV-40 DNA was incubated either with or without topo I in the absence of GST-ALY and DEK. After 1 h at 37° C., the samples were treated with Proteinase K, and the DNA was purified and analyzed by agarose gel electrophoresis (0.8% at 2V/cm) and SybrGold staining.

B1: DEK: full-length recombinant DEK protein produced in baculovirus (protein, UniProt P35659 1-375, looked up)
chain: MSASAPAAEGEGTPTQPASEKEPEMPGPREESEEEEDEDDEEEEEEEKEKSLIVEGKREKKKVERLTMQVSSLQREPFTIAQGKGQKLCEIERIHFFLSKKKTDELRNLHKLLYNRPGTVSSLKKNVGQFSGFPFEKGSVQYKKKEEMLKKFRNAMLKSICEVLDLERSGVNSELVKRILNFLMHPKPSGKPLPKSKKTCSKGSKKERNSSGMARKAKRTKCPEILSDESSSDEDEKKNKEESSDDEDKESEEEPPKKTAKREKPKQKATSKSKKSVKSANVKKADSSTTKKNQNSSKKESESEDSSDDEPLIKKLKKPPTDEELKETIKKLLASANLEEVTMKQICKKVYENYPTYDLTERKDFIKTTVKELIS
modifications: full-length
notes: full-length recombinant DEK protein produced in baculovirus
In the case of B1, the uptake by cells (MDM and HeLa cells) is reported as “can be taken up”, the endothelial cell chemotaxis [1] is reported as “does attract endothelial cells” and the “neutrophil migration toward DEK” value [2] is reported as “statistically significant; also recorded: specifically migrate toward DEK in a dose-dependent manner”. The “induction of DNA supercoiling” value (circular SV-40 DNA) was “induced supercoiling”.
